Test results reported in the supplement of paper PMC5998384.

What was measured:
[1] = system: HeLa Kyoto; assay: solubility in G1/S (NP-40 vs SDS abundance) (log2 ratio); higher = more soluble; details: cell cycle stage: G1/S
[2] = system: HeLa Kyoto; assay: melting temperature (median over replicates), in situ; higher = more thermally stable
[3] = system: HeLa Kyoto; assay: solubility change mitosis vs G1/S (difference of NP-40 vs SDS log2 ratios) (log2 ratio difference); higher = more soluble in mitosis
[4] = system: HeLa Kyoto; assay: thermal stability score vs G1/S (z-score of summed log2 fold changes over temperatures); higher = more thermally stable than in G1/S
[5] = cell cycle stage: early G1 (4.5 h after nocodazole release)
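Throughout, for melting temperature (median over replicates), in situ: HeLa Kyoto cells synchronized by double thymidine or nocodazole block, proteins quantified by TMT10plex mass spectrometry, three independent biological replicates.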
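Throughout, for solubility change mitosis vs G1/S (difference of NP-40 vs SDS log2 ratios): synchronized HeLa Kyoto cells (double thymidine block for G1/S, nocodazole release for mitosis), protein amounts in NP-40 versus SDS lysates quantified by mass spectrometry, three biological replicates.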
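Throughout, for solubility in G1/S (NP-40 vs SDS abundance): HeLa Kyoto cells arrested at G1/S by double thymidine block, proteins quantified by TMT10plex mass spectrometry in mild NP-40 versus SDS extracts, three biological replicates.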
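Throughout, for thermal stability score vs G1/S (z-score of summed log2 fold changes over temperatures): synchronized HeLa Kyoto cells, proteins quantified by TMT10plex mass spectrometry, three biological replicates, mitosis taken 0.5 h after nocodazole release, G1/S directly after double thymidine block.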

UAP1, sequence (chain, as listed by the source): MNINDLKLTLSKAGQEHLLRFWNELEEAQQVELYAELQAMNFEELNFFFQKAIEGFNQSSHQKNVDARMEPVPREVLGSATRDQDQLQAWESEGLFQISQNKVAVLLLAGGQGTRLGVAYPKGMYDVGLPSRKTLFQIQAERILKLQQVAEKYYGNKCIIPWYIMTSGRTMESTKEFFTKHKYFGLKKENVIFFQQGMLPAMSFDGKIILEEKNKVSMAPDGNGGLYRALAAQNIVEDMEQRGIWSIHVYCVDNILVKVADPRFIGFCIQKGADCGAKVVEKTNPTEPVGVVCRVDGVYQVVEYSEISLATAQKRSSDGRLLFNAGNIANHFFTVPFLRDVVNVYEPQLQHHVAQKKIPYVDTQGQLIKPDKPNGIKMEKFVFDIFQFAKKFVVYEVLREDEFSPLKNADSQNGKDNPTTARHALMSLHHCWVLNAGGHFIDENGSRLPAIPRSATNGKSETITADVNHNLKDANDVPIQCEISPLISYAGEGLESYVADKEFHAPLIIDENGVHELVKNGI

Substance | solubility in G1/S (log2) [1] | melting temperature ([2]; cell cycle stage: G1/S) [°C] | melting temperature ([2]; cell cycle stage: mitosis) [°C] | solubility change mitosis (log2) [3] | thermal stability score [4, 5] | thermal stability score ([4]; cell cycle stage: mitosis)
MAVPFVEDWDLVQTLGEGAYGEVQLAVNRVTEEAVAVKIVDMKRAVDCPENIKKEICINKMLNHENVVKFYGHRREGNIQYLFLEYCSGGELFDRIEPDIGMPEPDAQRFFHQLMAGVVYLHGIGITHRDIKPENLLLDERDNLKISDFGLATVFRYNNRERLLNKMCGTLPYVAPELLKRREFHAEPVDVWSCGIVLTAMLAGELPWDQPSDSCQEYSDWKEKKTYLNPWKKIDSAPLALLHKILVENPSARITIPDIKKDRWYNKPLKKGAKRPRVTSGGVSESPSGFSKHIQSNLDFSPVNSASSEENVKYSSSQPEPRTGLSLWDTSPSYIDKLVQGISFSQPTCPDHMLLNSQLLGTPGSSQNPWQRLVKRMTRFFTKLDADKSYQCLKETCEKLGYQWKKSCMNQVTISTTDRRNNKLIFKVNLLEMDDKILVDFRLSKGDGLEFKRHFLKIKGKLIDIVSSQKIWLPAT [CHEK1] | 0.104 | 51.7 | 51.9 | -0.07 | 1.82 | 1.62
MAGASELGTGPGAAGGDGDDSLYPIAVLIDELRNEDVQLRLNSIKKLSTIALALGVERTRSELLPFLTDTIYDEDEVLLALAEQLGNFTGLVGGPDFAHCLLPPLENLATVEETVVRDKAVESLRQISQEHTPVALEAYFVPLVKRLASGDWFTSRTSACGLFSVCYPRASNAVKAEIRQQFRSLCSDDTPMVRRAAASKLGEFAKVLELDSVKSEIVPLFTSLASDEQDSVRLLAVEACVSIAQLLSQDDLETLVMPTLRQAAEDKSWRVRYMVADRFSELQKAMGPKITLNDLIPAFQNLLKDCEAEVRAAAAHKVKELGENLPIEDRETIIMNQILPYIKELVSDTNQHVKSALASVIMGLSTILGKENTIEHLLPLFLAQLKDECPDVRLNIISNLDCVNEVIGIRQLSQSLLPAIVELAEDAKWRVRLAIIEYMPLLAGQLGVEFFDEKLNSLCMAWLVDHVYAIREAATNNLMKLVQKFGTEWAQNTIVPKVLVMANDPNYLHRMTTLFCINALSEACGQEITTKQMLPIVLKMAGDQVANVRFNVAKSLQKIGPILDTNALQGEVKPVLQKLGQDEDMDVKYFAQEAISVLALA [PPP2R1B] | 0.391 | 49.2 | 49.6 | -0.0603 | 1.92 | 2.96
MIGGLFIYNHKGEVLISRVYRDDIGRNAVDAFRVNVIHARQQVRSPVTNIARTSFFHVKRSNIWLAAVTKQNVNAAMVFEFLYKMCDVMAAYFGKISEENIKNNFVLIYELLDEILDFGYPQNSETGALKTFITQQGIKSQHQTKEEQSQITSQVTGQIGWRREGIKYRRNELFLDVLESVNLLMSPQGQVLSAHVSGRVVMKSYLSGMPECKFGMNDKIVIEKQGKGTADETSKSGKQSIAIDDCTFHQCVRLSKFDSERSISFIPPDGEFELMRYRTTKDIILPFRVIPLVREVGRTKLEVKVVIKSNFKPSLLAQKIEVRIPTPLNTSGVQVICMKGKAKYKASENAIVWKIKRMAGMKESQISAEIELLPTNDKKKWARPPISMNFEVPFAPSGLKVRYLKVFEPKLNYSDHDVIKWVRYIGRSGIYETRC [AP2M1] | -0.387 | 52.3 | 51.6 | 0.00223 | -2.25 | -0.263
MTILTYPFKNLPTASKWALRFSIRPLSCSSQLRAAPAVQTKTKKTLAKPNIRNVVVVDGVRTPFLLSGTSYKDLMPHDLARAALTGLLHRTSVPKEVVDYIIFGTVIQEVKTSNVAREAALGAGFSDKTPAHTVTMACISANQAMTTGVGLIASGQCDVIVAGGVELMSDVPIRHSRKMRKLMLDLNKAKSMGQRLSLISKFRFNFLAPELPAVSEFSTSETMGHSADRLAAAFAVSRLEQDEYALRSHSLAKKAQDEGLLSDVVPFKVPGKDTVTKDNGIRPSSLEQMAKLKPAFIKPYGTVTAANSSFLTDGASAMLIMAEEKALAMGYKPKAYLRDFMYVSQDPKDQLLLGPTYATPKVLEKAGLTMNDIDAFEFHEAFSGQILANFKAMDSDWFAENYMGRKTKVGLPPLEKFNNWGGSLSLGHPFGATGCRLVMAAANRLRKEGGQYGLVAACAAGGQGHAMIVEAYPK [HADHB] | 0.274 | 50.7 | 50.7 | -0.0395 | -0.727 | -0.0884
MPGHLQEGFGCVVTNRFDQLFDDESDPFEVLKAAENKKKEAGGGGVGGPGAKSAAQAAAQTNSNAAGKQLRKESQKDRKNPLPPSVGVVDKKEETQPPVALKKEGIRRVGRRPDQQLQGEGKIIDRRPERRPPRERRFEKPLEEKGEGGEFSVDRPIIDRPIRGRGGLGRGRGGRGRGMGRGDGFDSRGKREFDRHSGSDRSSFSHYSGLKHEDKRGGSGSHNWGTVKDELTESPKYIQKQISYNYSDLDQSNVTEETPEGEEHHPVADTENKENEVEEVKEEGPKEMTLDEWKAIQNKDRAKVEFNIRKPNEGADGQWKKGFVLHKSKSEEAHAEDSVMDHHFRKPANDITSQLEINFGDLGRPGRGGRGGRGGRGRGGRPNRGSRTDKSSASAPDVDDPEAFPALA [SERBP1] | -0.123 | 58.8 |  | 0.395 | -1.78 | -8.72
UAP1 | 0.216 | 53.2 | 53.3 | -0.119 | 0.837 | 1.62
MGPGPSRAPRAPRLMLCALALMVAAGGCVVSAFNLDTRFLVVKEAGNPGSLFGYSVALHRQTERQQRYLLLAGAPRELAVPDGYTNRTGAVYLCPLTAHKDDCERMNITVKNDPGHHIIEDMWLGVTVASQGPAGRVLVCAHRYTQVLWSGSEDQRRMVGKCYVRGNDLELDSSDDWQTYHNEMCNSNTDYLETGMCQLGTSGGFTQNTVYFGAPGAYNWKGNSYMIQRKEWDLSEYSYKDPEDQGNLYIGYTMQVGSFILHPKNITIVTGAPRHRHMGAVFLLSQEAGGDLRRRQVLEGSQVGAYFGSAIALADLNNDGWQDLLVGAPYYFERKEEVGGAIYVFMNQAGTSFPAHPSLLLHGPSGSAFGLSVASIGDINQDGFQDIAVGAPFEGLGKVYIYHSSSKGLLRQPQQVIHGEKLGLPGLATFGYSLSGQMDVDENFYPDLLVGSLSDHIVLLRARPVINIVHKTLVPRPAVLDPALCTATSCVQVELCFAYNQSAGNPNYRRNITLAYTLEADRDRRPPRLRFAGSESAVFHGFFSMPEMRCQKLELLLMDNLRDKLRPIIISMNYSLPLRMPDRPRLGLRSLDAYPILNQAQALENHTEVQFQKECGPDNKCESNLQMRAAFVSEQQQKLSRLQYSRDVRKLLLSINVTNTRTSERSGEDAHEALLTLVVPPALLLSSVRPPGACQANETIFCELGNPFKRNQRMELLIAFEVIGVTLHTRDLQVQLQLSTSSHQDNLWPMILTLLVDYTLQTSLSMVNHRLQSFFGGTVMGESGMKTVEDVGSPLKYEFQVGPMGEGLVGLGTLVLGLEWPYEVSNGKWLLYPTEITVHGNGSWPCRPPGDLINPLNLTLSDPGDRPSSPQRRRRQLDPGGGQGPPPVTLAAAKKAKSETVLTCATGRAHCVWLECPIPDAPVVTNVTVKARVWNSTFIEDYRDFDRVRVNGWATLFLRTSIPTINMENKTTWFSVDIDSELVEELPAEIELWLVLVAVGAGLLLLGLIILLLWKCGFFKRARTRALYEAKRQKAEMKSQPSETERLTDDY [ITGA3] | 0.0349 | 56.8 | 59.2 | 0.0722 | -0.693 | -1.42
MAAIGVHLGCTSACVAVYKDGRAGVVANDAGDRVTPAVVAYSENEEIVGLAAKQSRIRNISNTVMKVKQILGRSSSDPQAQKYIAESKCLVIEKNGKLRYEIDTGEETKFVNPEDVARLIFSKMKETAHSVLGSDANDVVITVPFDFGEKQKNALGEAARAAGFNVLRLIHEPSAALLAYGIGQDSPTGKSNILVFKLGGTSLSLSVMEVNSGIYRVLSTNTDDNIGGAHFTETLAQYLASEFQRSFKHDVRGNARAMMKLTNSAEVAKHSLSTLGSANCFLDSLYEGQDFDCNVSRARFELLCSPLFNKCIEAIRGLLDQNGFTADDINKVVLCGGSSRIPKLQQLIKDLFPAVELLNSIPPDEVIPIGAAIEAGILIGKENLLVEDSLMIECSARDILVKGVDESGASRFTVLFPSGTPLPARRQHTLQAPGSISSVCLELYESDGKNSAKEETKFAQVVLQDLDKKENGLRDILAVLTMKRDGSLHVTCTDQETGKCEAISIEIAS [HSPA14] | 0.167 | 48.4 | 48.4 | -0.0832 | 1.14 | 3.27
